Measurements from patent publication US20170097353A1 (University of California, published 2017).
Ends that are not written are not given here. * marks the point of attachment. Butanoyl(4-N3) = [N-]=[N+]=NCCCC(=O)*

molecular target: T1, Prostate Specific Membrane Antigen (PSMA) on the surface of LNCaP / LNCaP CSS prostate cancer cells (human, UniProt Q04609 1-750, glycoprotein); experiment: cell-based phage ELISA on LNCaP cells (FIG. 5A)
T1 construct: whole, on cells; Endogenous PSMA on LNCaP cells (derived from lymph node adenocarcinoma of the human prostate); Cells were glutaraldehyde-fixed on Maxisorp plates in the cell-based phage ELISA, or in suspension in the sandwich ELISA; also called cell surface PSMA
T1 sequence (Q04609 whole entry): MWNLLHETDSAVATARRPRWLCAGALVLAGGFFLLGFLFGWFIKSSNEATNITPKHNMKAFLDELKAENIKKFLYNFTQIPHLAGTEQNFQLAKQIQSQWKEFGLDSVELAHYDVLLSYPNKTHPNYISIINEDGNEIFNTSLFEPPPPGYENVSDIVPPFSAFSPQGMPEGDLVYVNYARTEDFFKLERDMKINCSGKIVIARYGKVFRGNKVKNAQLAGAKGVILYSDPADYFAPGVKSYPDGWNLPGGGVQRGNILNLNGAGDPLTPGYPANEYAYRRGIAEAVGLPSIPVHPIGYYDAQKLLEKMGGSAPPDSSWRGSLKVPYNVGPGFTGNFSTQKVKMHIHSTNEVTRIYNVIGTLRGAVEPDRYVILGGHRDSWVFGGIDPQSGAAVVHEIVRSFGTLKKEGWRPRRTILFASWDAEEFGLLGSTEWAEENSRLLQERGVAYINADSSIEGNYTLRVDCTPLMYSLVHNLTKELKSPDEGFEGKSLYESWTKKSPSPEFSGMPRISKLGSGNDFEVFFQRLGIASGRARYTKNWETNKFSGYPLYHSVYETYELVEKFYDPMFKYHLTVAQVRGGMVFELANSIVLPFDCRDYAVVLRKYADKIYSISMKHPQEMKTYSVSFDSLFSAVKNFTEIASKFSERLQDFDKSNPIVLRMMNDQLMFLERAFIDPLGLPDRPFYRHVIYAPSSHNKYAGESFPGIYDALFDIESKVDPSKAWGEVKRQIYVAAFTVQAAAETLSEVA

| Binder | binding result |
| --- | --- |
| SECVEVFQNSCDW-NH2 (not fully specified (N-terminus); cysteine pairing not given here; also: Mal-PEG100-alkyne clicked (triazole) to azide at N-terminus, Multivalent display on M13 phage wrapped with K14-Cys) | binds |
| {pentynoic acid-15‑azido‑4,7,10,13‑tetraoxapentadecanoic acid}-SECVEVFQNSCDW-NH2 (not fully specified; cysteine pairing not given here; also: pentynoic acid clicked to azide (triazole), Mal-PEG100-NH2 HBTU-coupled non-specifically, Multivalent display on M13 phage wrapped with K14-Cys) | binds |
| {pentynoic acid-Butanoyl(4-N3)}-SECVEVFQNSCDW-NH2 (not fully specified; cysteine pairing not given here; also: Mal-PEG100 coupled non-specifically (N-terminal or side-chain carboxylate), Multivalent display on M13 phage wrapped with K14-Cys; also called PEGylated ligand 2; peptide-2) | binds |
| {Mal‑PEG100‑alkyne (triazole)-PEG4 linker}-SECVEVFQNSCDW-NH2 (not fully specified; cysteine pairing not given here, Multivalent display on M13 phage wrapped with K14-Cys) | binds |
